Tests used:
[1] = target: P34/P37 (trypanosome-specific proteins); assay: co-IP; whole-cell extract of 10×-Ty-TbRrs1 T. brucei cells, beads with anti-P34/P37, anti-TbL5 or anti-TbRpf2 antibody, anti-Ty Western blot of pellet and supernatant; cellular RNA digested with RNase A
[2] = target: TbL5 (T. brucei homologue of ribosomal protein L5), endogenous (T. brucei (endogenous in 10×-Ty-TbRrs1 cells)); assay: as above
[3] = target: TbRpf2 (T. brucei homologue of Rpf2), endogenous (T. brucei (endogenous in 10×-Ty-TbRrs1 cells)); assay: as above
[4] = target: P34/P37 (trypanosome-specific proteins); assay: co-IP; whole-cell extract of 10×-Ty-TbRrs1 T. brucei cells, beads with anti-P34/P37, anti-TbL5 or anti-TbRpf2 antibody, anti-Ty Western blot of pellet and supernatant; without RNase A
[5] = target: TbL5 (T. brucei homologue of ribosomal protein L5), endogenous (T. brucei (endogenous in 10×-Ty-TbRrs1 cells)); assay: as above
[6] = target: TbRpf2 (T. brucei homologue of Rpf2), endogenous (T. brucei (endogenous in 10×-Ty-TbRrs1 cells)); assay: as above
[7] = target: recombinant TbL5 (T. brucei); assay: co-IP; recombinant TbRrs1 incubated with recombinant P34, TbL5 or TbRpf2, precipitated with anti-P34, anti-L5 or anti-Rpf2 antibody, with or without in vitro-transcribed 5S rRNA; anti-His Western blot of pellet and supernatant
[8] = target: recombinant TbRpf2 (T. brucei); assay: as above
[9] = target: recombinant P34 (T. brucei); assay: as above
[10] = test system: TbRpf2 (coexpressed, untagged);(His)6-TbRrs1 (coexpressed) (Trypanosoma brucei;Trypanosoma brucei); assay: filter binding; settings: coexpressed complex; Filter binding with radiolabeled 5S rRNA, triplicate; buffer, salt, pH and temperature not given (as in ref 9)
[11] = test system: (His)6-TbRpf2 (Trypanosoma brucei); assay: filter binding; settings: without TbRrs1; text also cites ref 11; Filter binding with radiolabeled 5S rRNA, triplicate; buffer, salt, pH and temperature not given (as in ref 9)
[12] = test system: SUMO-TbRrs1 (Trypanosoma brucei); assay: filter binding; settings: Filter binding with radiolabeled 5S rRNA, triplicate; buffer, salt, pH and temperature not given (as in ref 9)

**Q.** For “10×-Ty-TbRrs1 (Trypanosoma brucei homologue of regulator of ribosome synthesis 1, Ty-tagged at one copy of the gene) (natural protein)”, which amount in the pellet relative to pellet plus supernatant [1] is on record?
**A.** Its amount in the pellet relative to pellet plus supernatant is 0.61.

**Q.** And the amount in the pellet relative to pellet plus supernatant [2]?
**A.** The amount in the pellet relative to pellet plus supernatant was 0.63.

**Q.** And the amount in the pellet relative to pellet plus supernatant [3]?
**A.** The amount in the pellet relative to pellet plus supernatant was 0.58.

**Q.** And the amount in the pellet relative to pellet plus supernatant [4]?
**A.** The amount in the pellet relative to pellet plus supernatant was 0.06.

**Q.** What about the amount in the pellet relative to pellet plus supernatant [5] of the same substance?
**A.** Its amount in the pellet relative to pellet plus supernatant is 0.24.

**Q.** And the amount in the pellet relative to pellet plus supernatant [6]?
**A.** The amount in the pellet relative to pellet plus supernatant was 0.02.

**Q.** Which amount in the pellet relative to pellet plus supernatant, with 5S rRNA [7] does the source give for “SUMO-TbRrs1 (recombinant) (natural protein)” here?
**A.** Its amount in the pellet relative to pellet plus supernatant, with 5S rRNA is 0.74.

**Q.** What about the amount in the pellet relative to pellet plus supernatant, without 5S rRNA [7] of the same substance?
**A.** Its amount in the pellet relative to pellet plus supernatant, without 5S rRNA is 0.78.

**Q.** What about the amount in the pellet relative to pellet plus supernatant, with 5S rRNA [8] of the same substance?
**A.** Its amount in the pellet relative to pellet plus supernatant, with 5S rRNA is 0.65.

**Q.** And the amount in the pellet relative to pellet plus supernatant, without 5S rRNA [8]?
**A.** Its amount in the pellet relative to pellet plus supernatant, without 5S rRNA is 0.53.

**Q.** And the amount in the pellet relative to pellet plus supernatant, with 5S rRNA [9]?
**A.** The amount in the pellet relative to pellet plus supernatant, with 5S rRNA was 0.71.

**Q.** What about the amount in the pellet relative to pellet plus supernatant, without 5S rRNA [9] of the same substance?
**A.** The amount in the pellet relative to pellet plus supernatant, without 5S rRNA was 0.77.

**Q.** What does the source list for T. brucei 5S rRNA?
**A.** Kd [10]: 17.5 nM; Kd [11]: 17 nM; Kd [12]: 54.4 nM
